Test results reported in patent US20080286815A1, “SPECTROPHOTOMETRIC ASSAY FOR HUMAN HISTONE DEACETYLASE 8” (THE UNIVERSITY OF AKRON, priority 2007, published 2008).

Substrate: CSCC[C@H](NC(=O)[C@H](CC(C)C)NC(=O)[C@H](CCCC/N=C(/C)S)NC(=O)[C@H](CCCCN)NC(=O)[C@H](Cc1c[nH]cn1)NC(=O)[C@H](CCCN=C(N)N)NC(=O)[C@H](CO)NC(=O)[C@@H](NC(=O)[C@H](CO)NC(=O)[C@H](CCC(N)=O)NC(=O)CNC(=O)[C@H](CCCCN)NC(=O)[C@@H](N)CCCCN)[C@@H](C)O)C(=O)N[C@@H](Cc1ccccc1)C(=O)N[C@@H](CCCCN)C(=O)N[C@H](C(=O)N[C@@H](CCC(=O)O)C(=O)NCC(=O)O)[C@@H](C)O
Assay: DTNB-based enzymatic assay with purified HDAC8
Assay type: biochemical, human
Settings: other: peptide as in vitro HDAC8 substrate, 375 nM HDAC8, room temperature, 1 hour, pH 6.8
Procedure: DTNB-based enzymatic assay. The DTNB data shown in FIG. 4 was generated using the following procedure. A second portion (300 µL) of the above HDAC8 assay mixture was quenched with 600 µL of the stop solution: 3.2 M guanidinium chloride in 100 mM of sodium phosphate (pH 6.8), and was analyzed by the DTNB-based assay procedure according to the invention, i.e. 60 min after the quench and DTNB (100 µL) addition, A412 was recorded for each sample derived at different time points of the same assay reaction. Again, the same assay protocol was used when the HeLa nuclear extracts were used instead of human HDAC8. To measure the kinetic parameters for the thioacetyl-lysine p53 peptide as an in vitro HDAC8 substrate, all the assay reactions contained 375 nM of HDAC8, a range of substrate concentrations varied around the Km value, and were allowed to proceed at room temperature for 1 hour before quenching. Reaction velocities were determined under initial condition (substrate turnover <10%). This experiment was performed twice, and each duplicate measurement agreed within 20%. By using a non-linear least squares approach with the computer program Kaleidagraph (Reading, Pa., USA), kinetic parameters (kcat and Km) were derived from the Michaelis-Menten plot based on the experimental data.
Assay with purified HDAC8. […]

B1: human HDAC8 (Homo sapiens) (protein)
chain: MEEPEEPADSGQSLVPVYIYSPEYVSMCDSLAKIPKRASMVHSLIEAYALHKQMRIVKPKVASMEEMATFHTDAYLQHLQKVSQEGDDDHPDSIEYGLGYDCPATEGIFDYAAAIGGATITAAQCLIDGMCKVAINWSGGWHHAKKDEASGFCYLNDAVLGILRLRRKFERILYVDLDLHHGDGVEDAFSFTSKVMTVSLHKFSPGFFPGTGDVSDVGLGKGRYYSVNVPIQDGIQDEKYYQICESVLKEVYQAFNPKAVVLQLGADTIAGDPMCSFNMTPVGIGKCLKYILQWQLATLILGGGGYNLANTARCWTYLTGVILGKTLSSEIPDHEFFTAYGPDYVLEITPSCRPDRNEPHRIQQILNYIKGNLKHVV
B1 gave a Km of 33.7 ± 7.2 µM and a kcat of 0.00433 ± 0.00033 s⁻¹.
